According to US7708999B2, “Remedies for arthritis” (Kyowa Hakko Kirin Co., Ltd., priority 2001, dated 2010):

Key:
FGF-8 [1] = target: T1, FGF-8 (Homo sapiens, UniProt P55075); experiment: Inhibition by antibody of FGF-8-promoted production of matrix metalloproteinase-3 from rabbit chondrocytes; format: cell-based; conditions: FGF-8 100 ng/mL, 48 hours
T1 construct: purchased R & D
T1 sequence (P55075 23-215 isoform P55075-3 limits assumed): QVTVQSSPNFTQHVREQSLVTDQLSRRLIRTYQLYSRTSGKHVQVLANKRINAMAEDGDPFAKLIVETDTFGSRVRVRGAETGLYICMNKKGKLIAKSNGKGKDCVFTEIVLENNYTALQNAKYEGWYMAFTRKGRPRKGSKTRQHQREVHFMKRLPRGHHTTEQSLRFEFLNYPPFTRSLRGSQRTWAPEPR
Experimental: Rabbit articular chondrocytes were isolated and cultured by the method described in Example 1. After the chondrocytes became confluent, the culture solution was replaced with 0.5 vol % FBS/DMEM, followed by the culturing for 24 hours. The culture solution was removed, and 1 mL of 0.5 vol % FBS/DMEM (non-stimulated group), 0.5 vol % FBS/DMEM comprising FGF-8 (100 ng/mL)(0 group) or 0.5 vol % FBS/DMEM comprising FGF-8 (100 ng/mL) and anti-FGF-8 neutralizing antibody KM1334 (1, 3 or 10 μg/mL) was added, followed by the culturing for 48 hours. After 48 hours, the culture medium was recovered, the matrix metalloproteinase-3 concentration in the culture medium was measured using rabbit matrix metalloproteinase-3 ELISA system (manufactured by Amersham Biosciences). Three experiments were performed for each condition, and the mean values and the standard error were calculated.

[2] = system: mouse collagen-induced arthritis model; experiment: Mouse collagen-induced arthritis model; format: in vivo; conditions: day 42; 2 mg/mL, 200 μL per mouse intraperitoneally; compared to saline administrated group
Experimental: The mouse collagen-induced arthritis model was prepared in the following manner according to the method of Kamada et al., (Kamada H. et al., Jpn. J. Pharmacol., 70, 169-175, 1996) using DBA/1J mice (male, 7 weeks old, Japan Charles River).
A bovine cartilage-derived type II collagen solution (manufactured by Collagen Gijutsu Kenshu) was mixed with a Freund's complete adjuvant (manufactured by Iatron) under ice cooling to form an emulsion which was adjusted such that the final concentration of the type II collagen became 1.5 mg/mL. The emulsion was intradermally injected in amount of 100 μL at the base of the tail of the mouse for sensitization. Twenty-one days later, the additional immunization was performed in the same manner. One group consisted of 10 mice. Anti-FGF-8 neutralizing antibody KM1334 was dissolved in a saline (manufactured by Otsuka Seiyaku Kojo) to a final concentration of 2 mg/mL, and the solution was intraperitoneally administered to a KM1334 administrated group at a dose of 200 μL for each mouse once a day on days 21, 25, 28, 32, 35 and 39 from the initial sensitization of the mouse collagen-induced arthritis model. […] The change with time of edemas of all limbs in collagen-induced arthritis was evaluated by the scoring from 0 to 4 in each limb to a total of 16 at the maximum score in all limbs. […]

FGF-8 [3] = target: T1, FGF-8; experiment: Inhibition by antibody of FGF-8-promoted growth of human synovial cells; format: cell-based; conditions: FGF-8 500 ng/mL
Experimental: Rabbit synovial cells were collected by the method of Hamilton et al. (Hamilton J. A. and Slywka J., J. Immunol. 126, 851-855, 1981). The isolated synovial cells were suspended in RPMI 1640 medium comprising 10 vol % FBS (FBS-comprising RPMI 1640 medium is hereinafter referred to as FBS/RPMI 1640), and 10,000 cells was inoculated at each well of a 96-well culture plate. After 24 hours of the culturing, the culture medium of each well was removed, and 200 μL of 0.2 vol % FBS/RPMI 1640 (non-stimulated group) or 0.2 vol % FBS/RPMI 1640 comprising FGF-8 (1, 10 or 100 ng/mL) was added. […] The culturing was further performed for 24 hours, and the radioactivity of [^3H]thymidine incorporated in the cells was measured using a liquid scintillation counter (1205 Beta Plate, manufactured by Perkin Elmer Life Science Japan). Six experiments were performed for each condition, and the mean values and the standard error were calculated.
The same experiment as in Example 3 was performed using human synovial cells derived from the rheumatoid arthritis patient (procured from Toyobo). […] Six experiments were performed for each condition, and the mean values and the standard error were calculated.

- antibody concentration at which the production of matrix metalloproteinase-3 from the chondrocytes with FGF-8 was significantly inhibited (FGF-8 [1]): ≥ 1 µg/mL
- percent inhibition of matrix metalloproteinase-3 production (FGF-8 [1]; antibody 1 μg/mL): 72%
- percent inhibition of matrix metalloproteinase-3 production (FGF-8 [1]; antibody 3 μg/mL): 74%
- percent inhibition of matrix metalloproteinase-3 production (FGF-8 [1]; antibody 10 μg/mL): 100%
- antibody concentration from which the FGF-8-dependent incorporation of [3H]thymidine was significantly inhibited (FGF-8 [3]): ≥ 1 µg/mL
B1: KM1334: anti-FGF-8 neutralizing monoclonal antibody produced by hybridoma KM1334 (FERM BP-5451), mouse IgG1 subclass (antibody, V domains shown)
VH: QVQLQQSGAEVARPGASVKLSCKASGYTFTDYYLNWVKQRSGQGLEWIGEIDPGSDSIYYNENLEGRATLTADKSSSTAYMQLNSLTSEDSAVYFCARYGYSRYDVRFVYWGQGTLVTVST
VL: DVLMTQTPLSLPVSLGDQASISCRSSQSLVHSNGRTYLEWYLQKPGQSPKVLIYKVSNRISGVPDRFSGSGSGTDFTLKISRVEAEDLGVYFCFQGSHVPYTFGGGTKLEIK
- inhibition of the arthritic score [2]: 34%
